Here are results for twelve molecules from patent US20190352395A1 (REDWOOD BIOSCIENCE, published 2019).

Substitutions are numbered along the chain they refer to.

This experiment deals with T1, CD22-Fc (R&D Systems Cat. No. 1968SL) (human, UniProt P20273 20-687).
T1 construct: Bought reagent; also called CD22 antigen; huCD22-Fc; not shown: Fc part of the bought fusion
T1 sequence (looked up): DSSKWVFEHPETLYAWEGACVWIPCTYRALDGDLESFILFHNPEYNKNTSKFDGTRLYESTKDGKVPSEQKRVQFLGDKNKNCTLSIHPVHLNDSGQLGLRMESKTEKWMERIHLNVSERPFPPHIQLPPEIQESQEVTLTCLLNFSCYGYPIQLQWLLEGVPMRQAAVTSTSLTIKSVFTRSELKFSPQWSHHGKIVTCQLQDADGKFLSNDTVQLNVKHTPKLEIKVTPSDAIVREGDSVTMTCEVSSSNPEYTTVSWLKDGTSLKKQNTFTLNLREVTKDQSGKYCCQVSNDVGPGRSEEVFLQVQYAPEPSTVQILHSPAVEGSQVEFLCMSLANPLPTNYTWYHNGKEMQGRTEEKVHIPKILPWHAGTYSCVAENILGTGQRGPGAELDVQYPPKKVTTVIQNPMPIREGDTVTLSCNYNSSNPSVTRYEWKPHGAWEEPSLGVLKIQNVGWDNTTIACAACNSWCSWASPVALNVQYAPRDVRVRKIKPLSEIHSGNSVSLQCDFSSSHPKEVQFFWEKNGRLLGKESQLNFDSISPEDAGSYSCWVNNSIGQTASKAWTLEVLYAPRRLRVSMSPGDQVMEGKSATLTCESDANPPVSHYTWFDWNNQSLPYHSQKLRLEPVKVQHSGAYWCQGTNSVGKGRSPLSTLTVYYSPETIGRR
Nature of the experiment: competition ELISA on coated CD22-Fc; competitor biotinylated chimeric RFB4. On the procedure: 96 well MaxiSorp plates (Nunc) were coated with 1.0 μg/ml CD22-Fc (R&D Systems Cat. No. 1968SL) in Dulbecco's PBS (PAA Laboratories, Yeovil, UK) (60 μl final volume) at 4° C. overnight. Plates were blocked with Dulbecco's PBS-2% BSA for 1 hour at room temperature. Plates were washed 3 times with wash buffer (0.05% Tween20 in Dulbecco's-PBS). […] All samples were tested in duplicate. Plates were incubated for 1 h at room temperature and washed 3 times with wash buffer. 60 μl of a 1 in 1000 dilution of Streptavidin horse radish peroxidase (HRP) (Sigma-Aldrich) was added and incubated for 1 hour at room temperature. Plates were washed 3 times with wash buffer and 60 μl of 3,3′,5,5′-tetramethybenzidine (TMB) substrate (Invitrogen) was added and incubated at room temperature in the dark to allow the colour to develop. The reaction was stopped by adding 50 μl of 3M HCl. Plates were read at 450 nm using Dynex plate reader.

B1: humanized RFB4 antibody VH6/VK2 (antibody, human IgG1, V domains shown)
VH: EVQLVESGGGLVKPGGSLKLSCAASGFAFSIYDMSWVRQAPGKGLEWVAYISSGGGTTYYPDTVKGRFTISRDNAKNSLYLQMSSLRAEDTAMYYCARHSGYGSSYGVLFAYWGQGTLVTVSS
VL: DIQMTQSPSSLSASVGDRVTITCRASQDISNYLNWYQQKPGKAVKLLIYYTSILHSGVPSRFSGSGSGTDYTLTISSLQPEDFATYFCQQGNTLPWTFGGGTKVEIK
Turning to B1, the “IC50 relative to Chimeric RFB4 IgG1” value is 1 relative to Chimeric RFB4 IgG1.

B2: humanized RFB4 antibody VH5/VK1 (antibody, human IgG1, V domains shown)
VH: B1 VH with S84N
VL: B1 VL with P80Q
Turning to B2, the “IC50 relative to Chimeric RFB4 IgG1” value was 0.9 relative to Chimeric RFB4 IgG1.

B3: humanized RFB4 antibody VH6/VK4 (antibody, human IgG1, V domains shown)
VH: B1 VH
VL: B1 VL with L11V, V44P
For B3, the “IC50 relative to Chimeric RFB4 IgG1” value is 1 relative to Chimeric RFB4 IgG1.

B4: humanized RFB4 antibody VH4/VK4 (antibody, human IgG1, V domains shown)
VH: B1 VH with K19R
VL: B1 VL with L11V, V44P
With B4, the “IC50 relative to Chimeric RFB4 IgG1” value is 1 relative to Chimeric RFB4 IgG1.

B5: humanized RFB4 antibody VH3/VK4 (antibody, human IgG1, V domains shown)
VH: B1 VH with S78T
VL: B1 VL with L11V, V44P
As to B5, the “IC50 relative to Chimeric RFB4 IgG1” value was 1.1 relative to Chimeric RFB4 IgG1.

B6: humanized RFB4 antibody VH3/VK1 (antibody, human IgG1, V domains shown)
VH: B1 VH with S78T
VL: B1 VL with P80Q
As to B6, the “IC50 relative to Chimeric RFB4 IgG1” value is 0.8 relative to Chimeric RFB4 IgG1.

B7: humanized RFB4 antibody VH6/VK1 (antibody, human IgG1, V domains shown)
VH: B1 VH
VL: B1 VL with P80Q
In the case of B7, the “IC50 relative to Chimeric RFB4 IgG1” value was 0.9 relative to Chimeric RFB4 IgG1.

B8: humanized RFB4 antibody VH5/VK2 (antibody, human IgG1, V domains shown)
VH: B1 VH with S84N
VL: B1 VL
In the case of B8, the “IC50 relative to Chimeric RFB4 IgG1” value was 1 relative to Chimeric RFB4 IgG1.

B9: humanized RFB4 antibody VH5/VK4 (antibody, human IgG1, V domains shown)
VH: B1 VH with S84N
VL: B1 VL with L11V, V44P
B9: the “IC50 relative to Chimeric RFB4 IgG1” value was 1 relative to Chimeric RFB4 IgG1.

B10: humanized RFB4 antibody VH4/VK2 (antibody, human IgG1, V domains shown)
VH: B1 VH with K19R
VL: B1 VL
In the case of B10, the “IC50 relative to Chimeric RFB4 IgG1” value is 1.1 relative to Chimeric RFB4 IgG1.

B11: humanized RFB4 antibody VH4/VK1 (antibody, human IgG1, V domains shown)
VH: B1 VH with K19R
VL: B1 VL with P80Q
Turning to B11, the “IC50 relative to Chimeric RFB4 IgG1” value is 0.9 relative to Chimeric RFB4 IgG1.

B12: humanized RFB4 antibody VH3/VK2 (antibody, human IgG1, V domains shown)
VH: B1 VH with S78T
VL: B1 VL
B12: the “IC50 relative to Chimeric RFB4 IgG1” value was 1 relative to Chimeric RFB4 IgG1.
